The values below are quoted from earlier work in PMC4540356 (Thrombosis and haemostasis, 2010).

For the series, the system named is endothelial cells. The settings on record: via activation of ERK1/2 and Akt, ref [39].

B1: nicotinomide phosphoribosyltransferase/pre-B cell colony-enhancing factor (protein, UniProt P43490 1-491, looked up)
Nicotinamide …: MNPAAEAEFNILLATDSYKVTHYKQYPPNTSKVYSYFECREKKTENSKLRKVKYEETVFYGLQYILNKYLKGKVVTKEKIQEAKDVYKEHFQDDVFNEKGWNYILEKYDGHLPIEIKAVPEGFVIPRGNVLFTVENTDPECYWLTNWIETILVQSWYPITVATNSREQKKILAKYLLETSGNLDGLEYKLHDFGYRGVSSQETAGIGASAHLVNFKGTDTVAGLALIKKYYGTKDPVPGYSVPAAEHSTITAWGKDHEKDAFEHIVTQFSSVPVSVVSDSYDIYNACEKIWGEDLRHLIVSRSTQAPLIIRPDSGNPLDTVLKVLEILGKKFPVTENSKGYKLLPPYLRVIQGDGVDINTLQEIVEGMKQKMWSIENIAFGSGGGLLQKLTRDLLNCSFKCSYVVTNGLGINVFKDPVADPNKRSKKGRLSLHRTPAGNFVTLEEGKGDLEEYGQDLLHTVFKNGKVTKSYSFDEIRKNAQLNIELEAAHH
With B1, the “peNOS and NO induction in endothelial cells” value is “induce peNOS and NO in endothelial cells”.
